Measurements as given in patent publication US20200010508A1 (REGENTS OF THE UNIVERSITY OF MICHIGAN, published 2020).
Ends that are not written are not given here.

Tests used:
[1] = biological target: T1, Glypican-3 on human HCC cells (Hep3B, HepG2) and in HCC tissue (human, UniProt P51654 25-554); assay: cell-based or functional assay
[2] = biological target: T1, Glypican-3 on human HCC cells (Hep3B, …); assay: confocal microscopy of xenograft and normal mouse liver sections, n=26
Procedure: FIGS. 13A-I show validation of specific peptide binding to GPC3 overexpressed in mouse HCC xenograft tumors. Confocal microscopy of A) ALL*-Cy5.5 compared to B) QLE*-Cy5.5 to sections of Hep3B xenograft tumors. Fluorescence intensities were measured from sets of 3 (dashed white) boxes with dimensions of 20×20 μm2.
The specimens were also sectioned for collection of confocal images to perform microscopic validation of peptide binding ex vivo. We found increased cell surface staining of ALL*-Cy5.5 compared with QLE*-Cy5.5 to Hep3B xenograft (arrow), FIG. 13A,B. Overexpression of GPC3 on cell surface of Hep3B xenograft was confirmed with known antibody, FIG. 13C.

[3] = biological target: T1, Glypican-3 on human HCC cells (Hep3B, …); assay: flow cytometry, mean fluorescence of Hep3B cells with 0-200 nM peptide; apparent dissociation constant
Procedure: (§1) The apparent dissociation constant (kd) was measured for the optimized GPC3 peptide to Hep3B cells to provide an assessment of peptide binding affinity. The ALL*-Cy5.5 peptide reagent was serially diluted in PBS at concentrations ranging from 0 to 200 nM in 25 nM increments and incubated with Hep3B cells. The mean fluorescence intensities was measured on flow cytometry. The equilibrium dissociation constant kd=1/kₐ was calculated by performing a least squares fit of the data to the non-linear equation I=(I₀+Iₘₐₓkₐ[X])/([…]). I₀and Iₘₐₓ are the initial and maximum fluorescence intensities, corresponding to no peptide and at saturation, respectively, and [X] represents the concentration of the bound peptide.

[4] = biological target: T1, Glypican-3 on human HCC cells (Hep3B, …); assay: affinity restated in the discussion of the studies (flow cytometry on Hep3B cells)
Procedure: as §1

[5] = biological target: T1, Glypican-3 on human HCC cells (Hep3B, …); assay: immunofluorescence on human biopsies, ANOVA on log-transformed data
[6] = biological target: T1, Glypican-3 on human HCC cells (Hep3B, …); assay: confocal microscopy, Hep3B siGPC3 vs siCL
Text: The specificity of lead candidate peptide reagent binding was validated by siRNA knockdown of GPC3 in human HCC cells. The cells were transfected with siRNA to knockdown cell surface expression of GPC3. […] These cells were transfected with non-targeting siRNA (siCL) for use as control. […] FIG. 6-1D,E show ˜4-fold reduction in fluorescence intensity with both the peptide reagent and anti-GPC3 antibody, respectively, for Hep3B cells transfected with siRNA (siGPC3) to knock down GPC3 expression. […] FIG. 6-2M, N, O and P show the same result as original FIG. 6-1A, B, D and E.

[7] = biological target: T1, Glypican-3 on human HCC cells (Hep3B, …); assay: confocal microscopy on Hep3B cells with siRNA knockdown of GPC3
Text: (§2) On confocal microscopy, we observed strong fluorescence intensity from ALL*-Cy5.5 binding to the surface (arrow) of A) Hep3B and B) HepG2 human HCC cells, and minimal signal with C) SK-Hep1 cells. D-F) Minimal signal is observed with the scrambled control peptide QLE*-Cy5.5 for all cells. Strong binding (arrow) is also observed with AF488-labeled anti-GPC3 antibody used as a positive control for G) Hep3B and H) HepG2 and minimal signal with I) SK-Hep1. […] The Hep3B versus SK-Hep1 difference was also larger for antibody than QLE (P=2.3×10⁻⁸, 6.0-fold larger). Intensity was measured with 6 replicates per condition and fitted to an ANOVA model with terms for 9 means to log-transformed data. […] We further validated specific peptide binding to GPC3 using siRNA knockdown. […] Q) Quantified fluorescence intensities. The siCL vs siGPC3 difference was 7.4 times bigger for ALL than the same difference for QLE (P=7.8×10⁻⁵), and the difference for antibody was 8.9 times bigger than for QLE (P=2.5×10⁻⁵), by ANOVA on log-transformed data. Results are an average of 6 images collected independently.
The specificity of lead candidate peptide reagent binding was validated by siRNA knockdown of GPC3 in human HCC cells. The cells were transfected with siRNA to knockdown cell surface expression of GPC3. […] These cells were transfected with non-targeting siRNA (siCL) for use as control.

[8] = biological target: T1, Glypican-3 on human HCC cells (Hep3B, …); assay: confocal microscopy on cells, ANOVA on log-transformed data
Text: as §2, with “FIGS. 6-2A-Q show validation of specific peptide binding to cells in vitro. On” for “On”

T1 sequence (P51654 25-554 limits assumed): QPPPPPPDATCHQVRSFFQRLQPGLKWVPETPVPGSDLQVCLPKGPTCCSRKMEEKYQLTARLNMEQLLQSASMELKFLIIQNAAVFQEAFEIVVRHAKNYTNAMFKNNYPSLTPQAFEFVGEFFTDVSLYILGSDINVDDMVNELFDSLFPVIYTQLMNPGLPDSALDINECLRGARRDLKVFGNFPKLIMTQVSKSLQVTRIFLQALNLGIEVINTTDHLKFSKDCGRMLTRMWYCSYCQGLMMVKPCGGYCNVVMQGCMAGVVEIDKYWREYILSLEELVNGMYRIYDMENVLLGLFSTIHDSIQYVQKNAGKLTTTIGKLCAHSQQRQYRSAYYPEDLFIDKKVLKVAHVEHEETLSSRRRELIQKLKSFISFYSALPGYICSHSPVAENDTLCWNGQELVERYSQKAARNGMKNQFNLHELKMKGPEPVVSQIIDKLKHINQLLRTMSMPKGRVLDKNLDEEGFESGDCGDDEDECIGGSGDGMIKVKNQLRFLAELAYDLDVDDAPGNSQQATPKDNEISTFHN

reduction of T/B ratio of ALL*-Cy5.5 by blocking with 3-fold unlabeled targeting peptide dose [1] [fold] | reduction of T/B ratio of ALL*-Cy5.5 by blocking with 10-fold unlabeled targeting peptide dose [1] [fold] | target-to-background (T/B) ratio at 2 hours, in vivo whole-body NIR fluorescence imaging of Hep3B xenograft [1] | target-to-background ratio, in vivo NIR laparoscopy of Hep3B xenograft 2 hours after injection [1] | fold, intensity from peptide binding to HCC (Hep3B xenograft) against normal liver [2] [fold] | Kd [3] [nM] | Kd [4] [nM] | fold, signal in human HCC against adenoma [5] [fold] | fold, signal in human HCC against cirrhosis [5] [fold] | fold, signal in human HCC against normal liver [5] [fold] | fold reduction in fluorescence intensity on GPC3 knockdown [6] [fold] | fold, siCL vs siGPC3 difference against the same difference for QLE [7] [fold] | fold, intensity difference Hep3B vs SK-Hep1 against the same difference for QLE* [8] [fold] | fold, intensity difference HepG2 vs SK-Hep1 against the same difference for QLE* [8] [fold] | fluorescent intensity of ALL*-Cy5.5 against control peptide QLE*-Cy5.5, in vivo dual axes confocal endomicroscopy [1] [fold] | target-to-background ratio of ALL*-Cy5.5 against QLE*-Cy5.5, in vivo NIR laparoscopy [1] [fold] | Binder
1.65 | 3.56 | – | – | – | – | – | – | – | – | – | – | – | – | – | – | ALLANHEELFQT [unlabeled ALL* peptide (ALLANHEELFQT)]
– | – | 1.12 | 3 | – | – | – | – | – | – | – | – | – | – | – | – | QLELTFHANLEAGGGSK(sulfo‑Cy5.5) [QLE*-Cy5.5 scrambled control peptide (QLELTFHANLEA-GGGSK-Cy5.5)]
– | – | 3.91 | 8.3 | 2.22 | 71 | 71.3 | 2.48 | 2.05 | 3.43 | ~4 | 7.4 | 8.2 | 3.3 | 2.9 | 2.8 | ALLANHEELFQTGGGSK(sulfo‑Cy5.5) (also called lead candidate GPC3 peptide; optimized GPC3 peptide) [ALL*-Cy5.5 peptide reagent (ALLANHEELFQT-GGGSK-Cy5.5)]
